This is an account of results in publication PMC5402979, “Tissue-specific enhancer repression through molecular integration of cell signaling inputs”.

In one data set the target is GST-DllHD (UniProt P20009 120-188). Description: EMSA; strictly monomeric; abolished by increasing GST-C15HD; EMSA, 6% native polyacrylamide, 32P probes; buffers as in cited refs 22 (Bowl) and 26 (HD), not stated here. Particulars: protein: recombinant; tags: GST (N-term, pGex4T); label: 32P (Klenow dCTP).
Data set [1] concerns the target T1, GST-C15HD (Drosophila melanogaster, UniProt Q4V729 192-292). Description: EMSA; monomeric and some dimeric complexes; displaces DllHD dose-dependently; EMSA, 6% native polyacrylamide, 32P probes; buffers as in cited refs 22 (Bowl) and 26 (HD), not stated here. To be noted: protein: recombinant; tags: GST (N-term, pGex4T); label: 32P (Klenow dCTP). In general terms: Mobility shift assays separate free from complexed probe on a gel.

In another data set the target is GST-BowlZF (UniProt Q9VQU9 220-382). Description: EMSA; EMSA, 6% native polyacrylamide, 32P probes; buffers as in cited refs 22 (Bowl) and 26 (HD), not stated here. To be noted: protein: recombinant, tags: GST (N-term, pGex4T).
Chain of GST-BowlZF (Q9VQU9 220-382): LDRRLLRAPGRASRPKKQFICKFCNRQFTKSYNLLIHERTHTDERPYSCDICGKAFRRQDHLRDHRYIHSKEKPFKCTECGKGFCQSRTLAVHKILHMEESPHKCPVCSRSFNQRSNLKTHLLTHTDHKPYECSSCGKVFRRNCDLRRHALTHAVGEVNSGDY
Data set [2] deals with T1, GST-C15HD. The data set is described as follows: EMSA; up to three complexes; EMSA, 6% native polyacrylamide, 32P probes; buffers as in cited refs 22 (Bowl) and 26 (HD), not stated here. To be noted: protein: recombinant; tags: GST (N-term, pGex4T); label: 32P (Klenow dCTP).
For data set [3], the target named is T1, GST-C15HD. Description: EMSA; equivalent to CR1; EMSA, 6% native polyacrylamide, 32P probes; buffers as in cited refs 22 (Bowl) and 26 (HD), not stated here. To be noted: protein: recombinant; tags: GST (N-term, pGex4T); label: 32P (Klenow dCTP).
Data set [4] deals with T1, GST-C15HD. Description: EMSA; EMSA, 6% native polyacrylamide, 32P probes; buffers as in cited refs 22 (Bowl) and 26 (HD), not stated here. Particulars: protein: recombinant; tags: GST (N-term, pGex4T); label: 32P (Klenow dCTP).

T1 sequence (Q4V729 entry or part of it): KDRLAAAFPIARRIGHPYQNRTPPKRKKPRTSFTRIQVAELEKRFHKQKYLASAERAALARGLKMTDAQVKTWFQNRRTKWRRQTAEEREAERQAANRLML
Chain of GST-DllHD (P20009 120-188): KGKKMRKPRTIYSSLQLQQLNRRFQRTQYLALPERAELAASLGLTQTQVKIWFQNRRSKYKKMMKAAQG

B1: CR1 3' half (dsDNA)
DNA 1: CACGAAAAACAATTCAAAATTAATGGTAATAAGCAGTT
DNA 2: AACTGCTTATTACCATTAATTTTGAATTGTTTTTCGTG
Take B1: the binding result in the data set with GST-DllHD and with GST-C15HD [1] was “binds” each time.

B2: 2Sm (dsDNA)
DNA 1: AAATTTTAGTCCCAG
DNA 2: CTGGGACTAAAATTT
Regarding B2, the binding result with GST-BowlZF (label: 32P (Klenow dCTP)) is recorded as “no binding”.

B3: CR1 (dsDNA)
DNA 1: TTAAGCTGCAAATCGCGGCAATCGTTAAGATCACGAAAAACAATTCAAAATTAATGGTAATAAGCAGTT
DNA 2: AACTGCTTATTACCATTAATTTTGAATTGTTTTTCGTGATCTTAACGATTGCCGCGATTTGCAGCTTAA
On to B3, for which the binding result with GST-C15HD [2] is reported as “binds”.

B4: CR1DBSm (dsDNA)
DNA 1: TTAAGCTGCAAATCGCGGCAATCGTTAAGATCACGAAAAACAATTCAAACCCCATGGCCCCAAGCAGTT
DNA 2: AACTGCTTGGGGCCATGGGGTTTGAATTGTTTTTCGTGATCTTAACGATTGCCGCGATTTGCAGCTTAA
On to B4, for which the binding result with GST-C15HD [3] is given as “binds”.

B5: DBS (Dll-binding sequence) (dsDNA)
DNA 1: TCAAAATTAATGGTAATAAGCA
DNA 2: TGCTTATTACCATTAATTTTGA
As to B5, in the data set with GST-C15HD [4], the binding result is “no binding”.

B6: 1Sm (dsDNA)
DNA 1: TACAATTTAAGCCGTC
DNA 2: GACGGCTTAAATTGTA
B6: in the data set with GST-BowlZF (label: 32P (Klenow dCTP)), the binding result is “no binding”.

B7: 1L+ (CR2 large) (dsDNA)
DNA 1: TACAACAGAAGCCGTCTGGC
DNA 2: GCCAGACGGCTTCTGTTGTA
With B7, in the data set with GST-BowlZF (label: 32P (Klenow dCTP)), the binding result is given as “binds”.

B8: CR1S3+4+6m (dsDNA)
DNA 1: TTAAGCTGCAAATCGCGGCGGGCGCCCCGATCACGCCGGGCGGTTCGGGATTAATGGTAATAAGCAGTT
DNA 2: AACTGCTTATTACCATTAATCCCGAACCGCCCGGCGTGATCGGGGCGCCCGCCGCGATTTGCAGCTTAA
As to B8, the binding result with GST-C15HD [4] was “no binding”.

B9: 1Lm (dsDNA)
DNA 1: TACAATTTAAGCCGTAAAGC
DNA 2: GCTTTACGGCTTAAATTGTA
As for B9, the binding result with GST-BowlZF (label: 32P (Klenow dCTP)) is reported as “no binding”.

B10: OddZF BS (dsDNA)
DNA 1: GCATACAGTAGCACTGATAT
DNA 2: ATATCAGTGCTACTGTATGC
Take B10: in the data set with GST-BowlZF (label: 32P 5' end (Klenow, one dCTP)), the binding result is reported as “binds”.
